{
  "source": "patent US5910478A",
  "about": "“Peptidomimetics inhibiting the oncogenic action of p21 ras” (Innapharma, Inc., dated 1999)",
  "data": [
    {"target": "T1, recombinant transforming ras p21 (human)", "T1 chain": "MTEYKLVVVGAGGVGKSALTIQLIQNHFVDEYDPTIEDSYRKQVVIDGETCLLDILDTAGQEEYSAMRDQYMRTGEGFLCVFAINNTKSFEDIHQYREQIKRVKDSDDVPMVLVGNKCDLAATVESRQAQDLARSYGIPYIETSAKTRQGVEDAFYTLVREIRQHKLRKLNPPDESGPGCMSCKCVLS", "experiment": "cell-based or functional assay", "conditions": "not given", "units": {"Present Inhibition of ras-Induced Maturation": "percent"}, "values": [
      {"molecule": "KCDLA", "note": "[peptide of SEQ ID NO:2 (residues 117 to 121 of SEQ ID NO:5)]", "Present Inhibition of ras-Induced Maturation": 38},
      {"molecule": "YREQIKRVKDSDDVP", "note": "[peptide of SEQ ID NO:7 (residues 96 to 110 of SEQ ID NO:5)]", "Present Inhibition of ras-Induced Maturation": 56},
      {"molecule": "KRV", "note": "[Lys-Arg-Val]", "Present Inhibition of ras-Induced Maturation": 22},
      {"molecule": "IKRVKD", "note": "[peptide of SEQ ID NO:1 (residues 100 to 105 of SEQ ID NO:5)]", "Present Inhibition of ras-Induced Maturation": 76},
      {"molecule": "VVI", "note": "[Val-Val-Ile]", "Present Inhibition of ras-Induced Maturation": 34},
      {"molecule": "DLAA", "note": "[peptide of SEQ ID NO:4 (residues 119 to 122 of SEQ ID NO:5)]", "Present Inhibition of ras-Induced Maturation": 22},
      {"molecule": "TIEDSYRKQVVID", "note": "[peptide of SEQ ID NO:6 (residues 35 through 47 of SEQ ID NO:5)]", "Present Inhibition of ras-Induced Maturation": 28},
      {"molecule": "CDLAART", "note": "[peptide of SEQ ID NO:9 (residues 118 to 124 of SEQ ID NO:5)]", "Present Inhibition of ras-Induced Maturation": 65},
      {"molecule": "GNKCDLAARTVE", "note": "[peptide of SEQ ID NO:8 (residues 115 to 126 of SEQ ID NO:5)]", "Present Inhibition of ras-Induced Maturation": 92}
    ]},
    {"test_system": "oncogenic ras-p-21", "experiment": "not given", "conditions": "background; cited from earlier work", "values": [
      {"molecule": "N[C@@H](Cc1ccc(O)cn1)C(=O)O", "note": "[Azatyrosine]", "inhibition of oncogenic ras-p-21": "strongly inhibits"}
    ]}
  ]
}
